Experimental data reported in patent US20060024291A1 (DOHENY EYE INSTITUTE, published 2006).

Target: T1, protocadherin-42 (human, UniProt Q08174 58-1060)
T1 construct: Full length human cDNA expressed in mouse L cells (pRC/RSV-pc42); tested on the transfected cells or in their extracts; also called pc42; human pc42
T1 sequence: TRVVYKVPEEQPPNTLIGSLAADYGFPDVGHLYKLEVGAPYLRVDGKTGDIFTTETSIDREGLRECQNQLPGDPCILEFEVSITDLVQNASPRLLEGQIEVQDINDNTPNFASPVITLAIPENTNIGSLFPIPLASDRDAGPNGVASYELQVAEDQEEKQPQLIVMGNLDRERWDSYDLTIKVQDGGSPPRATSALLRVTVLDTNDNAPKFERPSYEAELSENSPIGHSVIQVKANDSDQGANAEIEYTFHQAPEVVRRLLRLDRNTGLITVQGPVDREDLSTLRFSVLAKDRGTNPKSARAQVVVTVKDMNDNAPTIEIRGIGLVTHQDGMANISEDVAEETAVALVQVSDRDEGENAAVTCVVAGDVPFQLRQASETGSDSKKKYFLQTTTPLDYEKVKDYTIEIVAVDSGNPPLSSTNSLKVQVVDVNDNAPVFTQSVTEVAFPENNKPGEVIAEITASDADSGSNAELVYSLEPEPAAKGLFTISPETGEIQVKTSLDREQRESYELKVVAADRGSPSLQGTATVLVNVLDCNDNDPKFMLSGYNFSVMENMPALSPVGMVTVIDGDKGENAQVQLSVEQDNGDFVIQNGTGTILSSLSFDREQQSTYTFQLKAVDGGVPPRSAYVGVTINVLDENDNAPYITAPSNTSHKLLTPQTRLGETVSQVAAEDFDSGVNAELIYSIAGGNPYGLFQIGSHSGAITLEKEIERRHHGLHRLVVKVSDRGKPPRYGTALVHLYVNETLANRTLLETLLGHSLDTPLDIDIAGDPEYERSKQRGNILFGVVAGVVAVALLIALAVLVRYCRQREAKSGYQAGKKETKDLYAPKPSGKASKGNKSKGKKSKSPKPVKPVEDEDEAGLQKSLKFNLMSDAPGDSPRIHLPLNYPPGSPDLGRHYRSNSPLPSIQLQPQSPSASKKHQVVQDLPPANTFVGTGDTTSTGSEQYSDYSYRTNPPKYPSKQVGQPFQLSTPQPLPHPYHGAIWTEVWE
Test: mixed cell aggregation assay, DiO-labelled pc43 transfectants with unlabelled pc42 transfectants
Method: The cell aggregation properties of the transfected L cells expressing protocadherin proteins were examined. Transfected L cells were cultured in Dulbecco's Modified Eagles Medium (DMEM) (Gibco, Grand Island, N.Y.) supplemented with 10% fetal bovine serum at 37° C. in 5% CO₂. Cells grown near confluence were treated with 0.01% trypsin in the presence of 1 mM EGTA for 25 minutes on a rotary shaker at 37° C. and collected by centrifugation. The cells were washed three times with Ca²⁺ free HEPES-buffered saline (HBS) after adding soybean trypsin inhibitor, and were resuspended in HBS containing 1% BSA. The cell aggregation assay [Urushihara et al., Dev. Biol., 70: 206-216 (1979)] was performed by incubating the resuspended cells in a 1:1 mixture of DMEM and HBS containing 1% BSA, 2 mM CaCl₂ and 20 μg/ml of deoxyribonucelease on a rotary shaker at 37° C. for 30 minutes to 6 hours.
This is in contrast to the cell aggregation that occurs with classic cadherins in similar experiments (Nagafuchi et al., supra, and Hatta et al., supra). […] Similar results were obtained when single cell suspensions of transfected cells were prepared by trypsin treatment in the presence of Ca²⁺. No re-aggregation was observed under the same conditions when untransfected L cells or L cells transfected with pRC/RSV vector alone were tested.

B1: protocadherin-43 (receptor)
chain: VIHYEIPEEREKGFAVGNVVANLGLDLGSLSARRFPVVSGASRRFFEVNRETGEMFVNDRLDREELCGTLPSCTVTLELVVENPLELFSVEVVIQDINDNNPAFPTQEMKLEISEAVAPGTRFPLESAHDPDLGSNSLQTYELSRNEYFALRVQTREDSTKYAELVLERALDREREPSLQLVLTALDGGTPALSASLPIHIKVLDANDNAPVFNQSLYRARVPGGCTSGTRVVQVLATDLDEGPNGEIIYSFGSHNRAGVRQLFALDLVTGMLTIKGRLDFEDTKLHEIYIQAKDKGANPEGAHCKVLVEVVDVNDNAPEITVTSVYSPVPEDASGTVIALLSVTDLDAGENGLVTCEVPPGLPFSLTSSLKNYFTLKTSADLDRETVPEYNLSITARDAGTPSLSALTIVRVQVSDINDNPPQSSQSSYDVYIEENNLPGAPILNLSVWDPDAPQNARLSFFLLEQGAETGLVGRYFTINRDNGIVSSLVPLDYEDRREFELTAHISDGGTPVLATNISVNIFVTDRNDNAPQVLYPRPGGSSVEMLPRGTSAGHLVSRVVGWDADAGHNAWLSYSLFGSPNQSLFAIGLHTGQISTARPVQDTDSPRQTLTVLIKDNGEPSLSTTATLTVSVTEDSPEARAEFPSGSAPREQKKNLTFYLLLSLILVSVGFVVTVFGVIIFKVYKWKQSRDLYRAPVSSLYRTPGPSLHADAVRGGLMSPHLYHQVYLTTDSRRSDPLLKKPGAASPLASRQNTLRSCDPVFYRQVLGAESAPPGQQAPPNTDWRFSQAQRPGTSGSQNGDDTGTWPNNQFDTEMLQAMILASASEAADGSSTLGGGAGTMGLSARYGPQFTLQHVPDYRQNVYIPGSNAH
notes: Full length human cDNA expressed in mouse L cells (pRC/RSV-pc43); tested on the transfected cells or in their extracts; also endogenous pc43 in human tissue sections; also called pc43; human pc43
B1: no binding.
